“And” between values parts separate entries of the source, which are not always exact repeats. Equal values may be shown once.
Target: the molecule itself
Experiment: AUC; sedimentation velocity, interference optics, OPN 1 mg/mL, 20 °C, 50,000 rpm; buffer changed from 20 mM THAM (10 mM NaCl, pH 8.00) to 20 mM PBS

B1: Osteopontin (bovine milk osteopontin, in-house reference standard) (natural protein)
chain: not shown
modifications: phosphorylations (~1.7 kDa) and O-linked glycosylations (2.9 kDa) on the full-length form; sites not given
notes: Osteopontin, bovine, from milk; By MALDI-TOF the material also holds an N-terminal fragment (150 amino acids, ~19.8 kDa); The sample is a mixture of full-length OPN and an N-terminal fragment of about 150 residues; also called OPN; bovine OPN; source: high-purity OPN protein ingredient extracted and provided by Arla Foods Ingredients (Denmark)
stoichiometry N: 4 and 8
